Results reported in US20240327530A1 (ICHNOS SCIENCES, published 2024).

T1: Recombinant mouse IL-1RAP Fc fusion protein (Sino Biologicals, catalog no. 52657-M02H) (mouse, UniProt Q61730 21-350)
T1 construct: Bought; not shown: Fc part of the bought fusion protein
T1 sequence: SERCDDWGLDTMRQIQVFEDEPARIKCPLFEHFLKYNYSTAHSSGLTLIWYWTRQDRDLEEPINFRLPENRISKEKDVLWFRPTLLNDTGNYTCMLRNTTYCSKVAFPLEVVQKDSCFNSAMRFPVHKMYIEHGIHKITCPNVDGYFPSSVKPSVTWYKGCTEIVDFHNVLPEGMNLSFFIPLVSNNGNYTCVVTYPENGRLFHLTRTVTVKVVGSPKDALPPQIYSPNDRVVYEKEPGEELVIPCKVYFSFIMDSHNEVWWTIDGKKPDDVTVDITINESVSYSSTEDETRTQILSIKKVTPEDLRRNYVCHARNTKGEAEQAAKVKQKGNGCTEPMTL

B1: Anti-IL-1RAP-C3-MP01-B5 Fab (Fab, V domains shown)
VH: EVQLLESGGGLVQPGGSLRLSCAASGFIFSTYGMGWVRQAPGKGLEWVSAISYDGEGTLYADSVKGRFTISRDNSKNTLYLQMNSLRAEDTAVYYCARFRYYTAFDYWGQGTLVTVSS
VL: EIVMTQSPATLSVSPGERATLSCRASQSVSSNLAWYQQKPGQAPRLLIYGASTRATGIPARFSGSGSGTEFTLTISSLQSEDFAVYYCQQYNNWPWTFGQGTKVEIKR
B2: Anti-IL-1RAP-C3-MP01-B7 Fab (Fab, V domains shown)
VH: EVQLLESGGGLVQPGGSLRLSCAASGFTLSGFSMSWVRQAPGKGLEWVSAISYDGEGTLYADSVKGRFTISRDNSKNTLYLQMNSLRAEDTAVYYCARFRYYTAFDYWGQGTLVTVSS
VL: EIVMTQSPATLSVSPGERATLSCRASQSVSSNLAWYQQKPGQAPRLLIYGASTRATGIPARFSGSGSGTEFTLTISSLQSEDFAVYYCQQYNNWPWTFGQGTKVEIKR
B3: Anti-IL-1RAP-C3-MP01-D2 Fab (Fab, V domains shown)
VH: EVQLLESGGGLVQPGGSLRLSCAASGFTFSQFGMTWVRQAPGKGLEWVSAISYDGEGTLYADSVKGRFTISRDNSKNTLYLQMNSLRAEDTAVYYCARFRYYTAFDYWGQGTLVTVSS
VL: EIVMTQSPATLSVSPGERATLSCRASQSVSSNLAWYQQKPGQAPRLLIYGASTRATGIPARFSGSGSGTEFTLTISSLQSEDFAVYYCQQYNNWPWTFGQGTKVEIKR
B4: Anti-IL-1RAP-C3-MP01-F5 Fab (Fab, V domains shown)
VH: EVQLLESGGGLVQPGGSLRLSCAASGFPLSNYGMSWVRQAPGKGLEWVSAISYDGEGTLYADSVKGRFTISRDNSKNTLYLQMNSLRAEDTAVYYCARFRYYTAFDYWGQGTLVTVSS
VL: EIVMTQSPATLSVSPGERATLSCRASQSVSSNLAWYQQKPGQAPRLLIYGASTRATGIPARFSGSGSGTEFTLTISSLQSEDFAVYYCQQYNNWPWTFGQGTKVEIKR
B5: Anti-IL-1RAP-C3-MP01-G10 Fab (Fab, V domains shown)
VH: EVQLLESGGGLVQPGGSLRLSCAASGFTFSHYGMSWVRQAPGKGLEWVSAISYDGEGTLYADSVKGRFTISRDNSKNTLYLQMNSLRAEDTAVYYCARFRYYTAFDYWGQGTLVTVSS
VL: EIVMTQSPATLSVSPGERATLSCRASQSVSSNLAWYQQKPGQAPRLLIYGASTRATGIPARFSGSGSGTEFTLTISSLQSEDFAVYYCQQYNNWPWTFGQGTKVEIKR
B6: Anti-IL-1RAP-C3-MP02-B8 Fab (Fab, V domains shown)
VH: EVQLLESGGGLVQPGGSLRLSCAASGFTFEHSSAGWVRQAPGKGLEWVSAISYDGEGTLYADSVKGRFTISRDNSKNTLYLQMNSLRAEDTAVYYCARFRYYTAFDYWGQGTLVTVSS
VL: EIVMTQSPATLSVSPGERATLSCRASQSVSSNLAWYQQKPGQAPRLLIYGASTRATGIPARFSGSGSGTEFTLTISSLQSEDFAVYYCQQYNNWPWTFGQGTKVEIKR
B7: Anti-IL-1RAP-C3-MP02-F6 Fab (Fab, V domains shown)
VH: EVQLLESGGGLVQPGGSLRLSCAASGFTFPDYPLGWVRQAPGKGLEWVSAISYDGEGTLYADSVKGRFTISRDNSKNTLYLQMNSLRAEDTAVYYCARFRYYTAFDYWGQGTLVTVSS
VL: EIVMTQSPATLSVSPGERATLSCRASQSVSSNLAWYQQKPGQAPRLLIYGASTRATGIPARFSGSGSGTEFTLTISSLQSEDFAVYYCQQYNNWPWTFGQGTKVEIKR
B8: Anti-IL-1RAP-C3-MP02-G2 Fab (Fab, V domains shown)
VH: EVQLLESGGGLVQPGGSLRLSCAASGFTYDVAPMGWVRQAPGKGLEWVSAISYDGEGTLYADSVKGRFTISRDNSKNTLYLQMNSLRAEDTAVYYCARFRYYTAFDYWGQGTLVTVSS
VL: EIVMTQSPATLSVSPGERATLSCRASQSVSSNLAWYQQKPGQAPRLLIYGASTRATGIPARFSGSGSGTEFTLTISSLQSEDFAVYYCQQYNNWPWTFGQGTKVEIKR

target: T1, Recombinant mouse IL-1RAP Fc fusion …; experiment: SPR, mouse IL-1RAP-Fc captured, Fab as analyte (0.04 to 5 nM)
Method: Affinities of the Fab fragments to mouse IL-1RAP were measured as described in Example 1, with the following modifications. Measurements were performed on Series S CM5 sensor chips (BIACORE™ T200, BIACORE™, GE […]®, catalog no. BR100530) coupled with anti-human IgG Fc (BIACORE™, GE […]®, catalog no. BR100839) using a commercial amine coupling kit (BIACORE™, GE […]®, catalog no. BR100050). SPR measurements were performed with commercially available recombinant mouse IL-1RAP Fc fusion protein (Sino Biologicals, catalog no. 52657-M02H). The affinities to mouse IL-1RAP were assessed by immobilizing mouse IL-1RAP-Fc and using Fab fragments as analyte. Around 60 RUs of mouse IL-1RAP Fc fusion protein were captured on fc2 of a Series S CM5 sensor chip coupled with anti-human IgG Fc. Fab fragments were injected in single cycle kinetic at different concentrations ranging from 0.04 to 5 nM, in HBS-EP+ buffer (BIACORE™, GE […]®, catalog no. BR100669) at a flow rate of 30 μl/min for 3 min on fc1 and fc2 (fc1 being used as reference). Dissociation was monitored for 10 min.

Point of comparison: B1, Kd 0.21 nM. Against it:
- B2 — within 1.5-fold, 0.17 nM
- B3 — within 1.5-fold, 0.22 nM
- B4 — within 1.5-fold, 0.28 nM
- B5 — the same, 0.21 nM
- B6 — 2.3-fold higher, 0.49 nM
- B7 — within 1.5-fold, 0.26 nM
- B8 — 1.5-fold higher, 0.32 nM
